This test deals with human properdin (human, UniProt P27918 28-469). Briefly: cell-based or functional assay.

The values below come from patent EP2544694B1 (Novelmed Therapeutics, Inc., dated 2018).

human properdin, sequence (P27918 28-469 limits assumed): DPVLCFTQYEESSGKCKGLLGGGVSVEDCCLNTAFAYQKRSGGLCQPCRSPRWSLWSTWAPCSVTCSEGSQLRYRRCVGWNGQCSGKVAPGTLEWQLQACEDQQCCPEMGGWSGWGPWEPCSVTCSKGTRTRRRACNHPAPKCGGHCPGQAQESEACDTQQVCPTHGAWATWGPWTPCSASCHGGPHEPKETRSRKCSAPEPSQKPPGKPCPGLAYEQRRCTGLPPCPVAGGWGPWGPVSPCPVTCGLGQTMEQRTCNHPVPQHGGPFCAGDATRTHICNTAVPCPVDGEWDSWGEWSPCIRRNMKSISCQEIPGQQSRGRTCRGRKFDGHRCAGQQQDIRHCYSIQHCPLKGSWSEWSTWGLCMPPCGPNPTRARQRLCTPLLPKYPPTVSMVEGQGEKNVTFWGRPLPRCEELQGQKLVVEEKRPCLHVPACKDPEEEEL

B1: anti-properdin monoclonal antibody IgG (14G11) (antibody, V domains shown)
VH: QVTLKESGPGILQPSQTLSLTCSFSGFSLSTSGMGVGWIRQPSGKGLEWLAHIWWDDVKSYNPALKSRLTISKDTSSSQVFLRIASVDTADTATYYCARIGDGYYSFDYWGQGTTLTVSS
VL: DIVMTQSHKFMSTSVGDRVSISCKASQDVSDAVAWFQQKPGQSPKLLIYSPSYRYTGVPDRFTGSGSGTDFTFTISSVQAEDLAVYYCQQHYSTPWTFGGGTKLEIKR
Consider B1, for which the “IC50 of inhibition of AP dependent hemolysis of rRBC in 10% normal human serum” value was determined as 10 nM.
